For assay [1], the target named is endogenous TRAPPC6A (TPC6A), human cells (human (endogenous in HEK293, BCC, SK-N-SH and other human cell lines)) (UniProt O75865). The assay can be described thus: western blotting (size of the bands); cytosol and nuclei of BCC cells, with or without UV irradiation; mitochondria of Jurkat T cells treated with PMA for 90 min. On the technique in general: In western blotting, separated proteins are transferred to a membrane and probed.

The target is the same in assay [2]. The assay is described as above. This is another data set of the same source.

Like-named read-outs stand apart in the source and are kept apart here.

Broadly, the stoichiometry N is the number of molecules, sites or subunits per partner or assembly. In the case of “endogenous TRAPPC6A (TPC6A), human cells (from UniProt O75865 1-159) (natural protein)”, the stoichiometry N in assay [1] was found to be 3; in assay [2], 2.

The values above are taken from paper PMC4981022.
